# In patent publication US20150344570A1 (published 2015):
# T1: FcgRIIaR (human, UniProt P12318 34-217)
# T1 construct: extracellular domain; also called FcγRIIa R; FcγRIIa type R; not shown: His tag at the C terminus
# T1 sequence (looked up): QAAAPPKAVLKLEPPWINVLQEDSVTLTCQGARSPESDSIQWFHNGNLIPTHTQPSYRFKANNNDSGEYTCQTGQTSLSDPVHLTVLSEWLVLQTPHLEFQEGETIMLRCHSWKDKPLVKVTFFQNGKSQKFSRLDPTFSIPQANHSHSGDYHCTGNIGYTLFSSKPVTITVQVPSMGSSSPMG
# T2: FcgRIIaH (human, UniProt P12318 34-217)
# T2 construct: extracellular domain; also called FcγRIIa H; FcγRIIa type H; not shown: His tag at the C terminus
# T2 sequence (looked up): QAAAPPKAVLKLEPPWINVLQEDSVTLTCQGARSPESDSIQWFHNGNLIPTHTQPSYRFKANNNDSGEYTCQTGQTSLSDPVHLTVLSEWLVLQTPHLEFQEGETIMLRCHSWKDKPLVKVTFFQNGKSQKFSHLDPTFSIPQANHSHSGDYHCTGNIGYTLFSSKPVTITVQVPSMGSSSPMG
# T3: FcgRIIb (human, UniProt P31994 43-217)
# T3 construct: extracellular domain; also called FcγRIIb; 2b; not shown: His tag at the C terminus
# T3 sequence (looked up): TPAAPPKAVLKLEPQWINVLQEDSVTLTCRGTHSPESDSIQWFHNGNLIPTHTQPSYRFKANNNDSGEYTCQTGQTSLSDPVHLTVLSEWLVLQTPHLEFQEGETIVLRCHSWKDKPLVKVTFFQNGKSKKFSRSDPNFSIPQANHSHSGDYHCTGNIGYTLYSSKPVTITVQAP
# How the values were obtained:
# Test in all cases: SPR (Biacore); KD of H240-Kn033/H240-Hl033/L73-k0 divided by KD of the variant
# FcgRIIaR = biological target: T1, FcgRIIaR
# Description: (§1) Next, the amino acid at position 330 was examined. The A330M alteration has been introduced into H240-Hl076 of H240-Kn125/H240-Hl076/L73-k0. […] L73-k0 was used as the common antibody L chain. Binding of the produced variants to FcgRIa, FcgRIIaR, FcgRIIaH, FcgRIIb, FcgRIIIaF, and FcgRIIIaV was measured according to the method of Reference Example 8.
# (§2) Analysis of interaction between objective antibody and the FcγR was carried out using Biacore T100 (GE Healthcare), Biacore T200, Biacore A100, and Biacore 4000. HBS-EP+ (GE Healthcare) was used as the running buffer, and the measurement temperature was set to 25° C. Chips produced by immobilizing the antigen peptide by the amine coupling method to a Series S sensor Chip CM5 (GE Healthcare), chips produced by allowing preliminarily biotinylated antigen peptides to interact with and immobilize onto a Series S Sensor Chip SA (certified) (GE Healthcare), chips produced by immobilizing Protein L (ACTIGEN, BioVision) to Series S Sencor Chip CM5 (GE Healthcare), or chips produced by immobilizing Protein A/G (Thermo Scientific) to Series S Sencor Chip CM5 (GE Healthcare) were used. Antibodies of interest were captured onto these chips, and allowed to interact to each FcγR diluted with running buffer. To regenerate and repeatedly use the chip, the antibodies captured onto the chip were washed off by reacting 10 mM glycine-HCl, pH 1.5.
# FcgRIIaH = biological target: T2, FcgRIIaH
# Description: as §1, §2
# FcgRIIIaV = biological target: T4, FcgRIIIaV (human, UniProt P08637 17-208)
# T4 construct: extracellular domain; Polymorphic site after J. Clin. Invest; also called FcγRIIIa V; 3aV; not shown: His tag at the C terminus
# Description: as §1, §2
# FcgRIIIaF = biological target: T5, FcgRIIIaF (human, UniProt P08637 17-208)
# T5 construct: extracellular domain; Polymorphic site after J. Clin. Invest; also called FcγRIIIa F; 3aF; not shown: His tag at the C terminus
# Description: as §1, §2
# FcgRIIb = biological target: T3, FcgRIIb
# Description: as §1, §2
# T5 sequence (P08637 17-208): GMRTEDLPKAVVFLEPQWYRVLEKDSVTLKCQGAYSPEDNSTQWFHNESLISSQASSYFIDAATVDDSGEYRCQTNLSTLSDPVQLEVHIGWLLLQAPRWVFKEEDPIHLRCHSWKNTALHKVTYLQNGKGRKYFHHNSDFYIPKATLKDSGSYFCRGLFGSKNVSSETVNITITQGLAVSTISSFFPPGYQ
# T4 sequence (P08637 17-208 F176V limits assumed): as the sequence (P08637 17-208) above, with F160V counted along it
Binder,fold 2aR (FcgRIIaR),fold 2aH (FcgRIIaH),fold 3aV (FcgRIIIaV),fold 3aF (FcgRIIIaF),fold 2b (FcgRIIb)
"H240-Kn037/H240-Hl036/L73-k0 (antibody, human IgG1, kappa, It says both H chains have G236A/S239D/I332E) heavy 1: QDQLVQSGAEVKKPGASVKVSCKASGFNIKDTYIQWVRQAPGQGLEWMGRIDPLRKQTKYREKFEGRVTITADTSTNTAYMELSSLRSEDTAVYYCVRSGREFDYWGQGTLVTVSSASTKGPSVFPLAPSSKSTSGGTAALGCLVKDYFPEPVTVSWNSGALTSGVHTFPAVLQSSGLYSLSSVVTVPSSSLGTQTYICNVNHKPSNTKVDKKVEPKSCDKTHTCPPCPAPELLAGPDVFLFPPKPKDTLMISRTPEVTCVVVDVSHEDPEVKFNWYVDGVEVHNAKTKPREEQYNSTYRVVSVLTVLHQDWLNGKEYKCKVSNKALPAPEEKTISKAKGQPREPQVCTLPPSRDELTKNQVSLWCLVKGFYPSDIAVEWESNGQPENNYKTTPPVLDSDGSFFLYSKLTVDKSRWQQGNVFSCSVMHEALHNHYTQKSLSLSP heavy 2: QDQLVQSGAEVKKPGASVKVSCKASGFNIKDTYIQWVRQAPGQGLEWMGRIDPLRKQTKYREKFEGRVTITADTSTNTAYMELSSLRSEDTAVYYCVRSGREFDYWGQGTLVTVSSASTKGPSVFPLAPSSKSTSGGTAALGCLVKDYFPEPVTVSWNSGALTSGVHTFPAVLQSSGLYSLSSVVTVPSSSLGTQTYICNVNHKPSNTKVDKKVEPKSCDKTHTCPPCPAPELLAGPDVFLFPPKPKDTLMISRTPEVTCVVVDVSHEDPEVKFNWYVDGVEVHNAKTKPREEQYNSTYRVVSVLTVLHQDWLNGKEYKCKVSNKALPAPEEKTISKAKGQPREPQVYTLPPSRCELTKNQVSLSCAVKGFYPSDIAVEWESNGQPENNYKTTPPVLDSDGSFFLVSKLTVDKSRWQQGNVFSCSVMHEALHNHYTQKSLSLSP light: DIQMTQSPSSLSASVGDRVTITCRASQDIHKYIAWYQQKPGQAPRLLIQYTSTLQPGVPSRFSGSGSGTDYTFTISSLQPEDIATYYCLQYEQLRTFGGGTKVEIKRTVAAPSVFIFPPSDEQLKSGTASVVCLLNNFYPREAKVQWKVDNALQSGNSQESVTEQDSKDSTYSLSSTLTLSKADYEKHKVYACEVTHQGLSSPVTKSFNRGEC",25.5 fold,11.3 fold,7.1 fold,13.8 fold,8.7 fold
"H240-Kn204/H240-Hl211/L73-k0 (antibody, human IgG1, kappa) heavy 1: QDQLVQSGAEVKKPGASVKVSCKASGFNIKDTYIQWVRQAPGQGLEWMGRIDPLRKQTKYREKFEGRVTITADTSTNTAYMELSSLRSEDTAVYYCVRSGREFDYWGQGTLVTVSSASTKGPSVFPLAPSSKSTSGGTAALGCLVKDYFPEPVTVSWNSGALTSGVHTFPAVLQSSGLYSLSSVVTVPSSSLGTQTYICNVNHKPSNTKVDKKVEPKSCDKTHTCPPCPAPEYLGGPSVFLFPPKPKDTLMISRTPEVTCVVVDVSHEDPEVKFNWYVDGVEVHNAKTYPREEQWNSTYRVVSVLTVLHQDWLNGKEYKCKVSNKALPAPIEKTISKAKGQPREPQVCTLPPSRDELTKNQVSLWCLVKGFYPSDIAVEWESNGQPENNYKTTPPVLDSDGSFFLYSKLTVDKSRWQQGNVFSCSVMHEALHNHYTQKSLSLSP heavy 2: QDQLVQSGAEVKKPGASVKVSCKASGFNIKDTYIQWVRQAPGQGLEWMGRIDPLRKQTKYREKFEGRVTITADTSTNTAYMELSSLRSEDTAVYYCVRSGREFDYWGQGTLVTVSSASTKGPSVFPLAPSSKSTSGGTAALGCLVKDYFPEPVTVSWNSGALTSGVHTFPAVLQSSGLYSLSSVVTVPSSSLGTQTYICNVNHKPSNTKVDKKVEPKSCDKTHTCPPCPAPELLGGPDVFLFPPKPKDTLMISRTPEVTCVVVDVSHEDPEVKFNWYVDGVEVHNAKTKPREEQYNSTYRVVSVLTVLHQDWLNGKEYKCKVSNKALPMPIEVTISKAKGQPREPQVYTLPPSRCELTKNQVSLSCAVKGFYPSDIAVEWESNGQPENNYKTTPPVLDSDGSFFLVSKLTVDKSRWQQGNVFSCSVMHEALHNHYTQKSLSLSP light: DIQMTQSPSSLSASVGDRVTITCRASQDIHKYIAWYQQKPGQAPRLLIQYTSTLQPGVPSRFSGSGSGTDYTFTISSLQPEDIATYYCLQYEQLRTFGGGTKVEIKRTVAAPSVFIFPPSDEQLKSGTASVVCLLNNFYPREAKVQWKVDNALQSGNSQESVTEQDSKDSTYSLSSTLTLSKADYEKHKVYACEVTHQGLSSPVTKSFNRGEC",1.2 fold,0.7 fold,6.5 fold,20.7 fold,2.5 fold

# Continued, values first:
fold 2aR (FcgRIIaR),fold 2aH (FcgRIIaH),fold 3aV (FcgRIIIaV),fold 3aF (FcgRIIIaF),fold 2b (FcgRIIb),Binder
1.5 fold,0.7 fold,7 fold,3.7 fold,1.3 fold,"H240-afucosyl_G1d/L73-k0 (antibody, human IgG1, kappa, fucose removed from the N-linked sugar chain (afucosylated), also called afucosylated antibody) heavy: not shown light: DIQMTQSPSSLSASVGDRVTITCRASQDIHKYIAWYQQKPGQAPRLLIQYTSTLQPGVPSRFSGSGSGTDYTFTISSLQPEDIATYYCLQYEQLRTFGGGTKVEIKRTVAAPSVFIFPPSDEQLKSGTASVVCLLNNFYPREAKVQWKVDNALQSGNSQESVTEQDSKDSTYSLSSTLTLSKADYEKHKVYACEVTHQGLSSPVTKSFNRGEC"
1.2 fold,1.4 fold,11.4 fold,24.2 fold,2.1 fold,"H240-Kn205/H240-Hl212/L73-k0 (antibody, human IgG1, kappa) heavy 1: QDQLVQSGAEVKKPGASVKVSCKASGFNIKDTYIQWVRQAPGQGLEWMGRIDPLRKQTKYREKFEGRVTITADTSTNTAYMELSSLRSEDTAVYYCVRSGREFDYWGQGTLVTVSSASTKGPSVFPLAPSSKSTSGGTAALGCLVKDYFPEPVTVSWNSGALTSGVHTFPAVLQSSGLYSLSSVVTVPSSSLGTQTYICNVNHKPSNTKVDKKVEPKSCDKTHTCPPCPAPEYLGGPSVFLFPPKPKDTLMISRTPEVTCVVVDVSHEDPEVKFNWYVDGVEVHNAKTKPREEQWNCTYRVVSVLTVLHQDWLNGKEYKCKVSNKALPAPIEKTISKAKGQPREPQVCTLPPSRDELTKNQVSLWCLVKGFYPSDIAVEWESNGQPENNYKTTPPVLDSDGSFFLYSKLTVDKSRWQQGNVFSCSVMHEALHNHYTQKSLSLSP heavy 2: QDQLVQSGAEVKKPGASVKVSCKASGFNIKDTYIQWVRQAPGQGLEWMGRIDPLRKQTKYREKFEGRVTITADTSTNTAYMELSSLRSEDTAVYYCVRSGREFDYWGQGTLVTVSSASTKGPSVFPLAPSSKSTSGGTAALGCLVKDYFPEPVTVSWNSGALTSGVHTFPAVLQSSGLYSLSSVVTVPSSSLGTQTYICNVNHKPSNTKVDKKVEPKSCDKTHTCPPCPAPELLGGPDVFLFPPKPKDTLMISRTPEVTCVVVDVSHEDPEVKFNWYVDGVEVHNAKTKPREEQYNSTYRVVSVLTVLHQDWLNGKEYKCKVSNKALPAPIEVTISKAKGQPREPQVYTLPPSRCELTKNQVSLSCAVKGFYPSDIAVEWESNGQPENNYKTTPPVLDSDGSFFLVSKLTVDKSRWQQGNVFSCSVMHEALHNHYTQKSLSLSP light: DIQMTQSPSSLSASVGDRVTITCRASQDIHKYIAWYQQKPGQAPRLLIQYTSTLQPGVPSRFSGSGSGTDYTFTISSLQPEDIATYYCLQYEQLRTFGGGTKVEIKRTVAAPSVFIFPPSDEQLKSGTASVVCLLNNFYPREAKVQWKVDNALQSGNSQESVTEQDSKDSTYSLSSTLTLSKADYEKHKVYACEVTHQGLSSPVTKSFNRGEC"
